Experimental data published in PMC2175169 (The Journal of Cell Biology, 2000).

Biological target: authentic E1A 243R protein, purified from bacteria (adenovirus, UniProt P03255-2 1-243)
Experiment: pull-down

B1: GST-p21 Δ1-80 (domain or fragment)
chain: TGPRRGRDELGGGRRPGTSPALLQGTAEEDHVDLSLSCTLVPRSGEQAEGSPGGPGDSQGRKRRQTSMTDFYHSKRRLIFSKRKP
  binding result: binds
